Consider two molecules from patent US20110076730A1 (priority 2006, published 2011).

The format of series [1] is biochemical. The settings on record: read-out: Cofactor Km.
The format of series [2] is biochemical. The settings on record: read-out: L-arabinose Km.
The format of series [3] is biochemical. The note with it: read-out: D-xylose Km.
The format of series [4] is biochemical. The note with it: pH 8.3.

Read-outs that look alike come from different tables or passages of the source.

B1: Xdh-C. crescentus: D-xylose dehydrogenase (Xdh) from Caulobacter crescentus CB15, protein RC001012 in the ERGO database (protein)
chain: MSSAIYPSLKGKRVVITGGGSGIGAGLTAGFARQGAEVIFLDIADEDSRALEAELAGSPIPPVYKRCDLMNLEAIKAVFAEIGDVDVLVNNAGNDDRHKLADVTGAYWDERINVNLRHMLFCTQAVAPGMKKRGGGAVINFGSISWHLGLEDLVLYETAKAGIEGMTRALARELGPDDIRVTCVVPGNVKTKRQEKWYTPEGEAQIVAAQCLKGRIVPENVAALVLFLASDDASLCTGHEYWIDAGWR
modifications: Caulobacter crescentus CB15
notes: D-xylose dehydrogenase (Xdh) from Caulobacter crescentus CB15, protein RC001012 in the ERGO database
What is called Km is the concentration of substrate that gives half-maximal velocity. B1: the Km in series [1] worked out at 130 µM; in series [2], 34000 µM; in series [3], 99 µM. Besides, the “D-fructose, D-galactose, D-mannose, 2-deoxy-D-glucose, D-glucose-6-phosphate and D-ribose as substrates” value in series [4] is recorded as “not the substrates”. Moreover, the “Oxidation of D-xylose, L-arabinose and D-glucose into corresponding sugar acid” value in series [4] was “could be oxidized”.

B2: Xdh-B. fungorum: D-xylose dehydrogenase (Xdh) from Burkholderia fungorum LB400, protein RBU11704 in the ERGO database (protein)
chain: MYLLSYPEQVDYPMSYAIYPSLSGKTVVITGGGSGIGAAMVEAFARQGARVFFLDVAEDDSLALQQSLSDAPHPPLFRRCDLRSVDAIHSAFAGIVEIAGPIEVLVNNAGNDDRHEVDAITPAYWDERMAVNLRHQFFCAQAAAAGMRKIGRGVILNLGSVSWHLALPNLAIYMSAKAGIEGLTRGLARDLGAAGIRVNCIIPGAVRTPRQMQLWQSPESEAKLVASQCLRLRIEPEHVARMALFLASDDASRCSGRDYFVDAGWYGE
modifications: Burkholderia fungorum LB400
notes: D-xylose dehydrogenase (Xdh) from Burkholderia fungorum LB400, protein RBU11704 in the ERGO database
As to B2, the Km in series [1] was determined as 260 µM; in series [2], 43000 µM; in series [3], 970 µM. The “D-fructose, D-galactose, D-mannose, 2-deoxy-D-glucose, D-glucose-6-phosphate and D-ribose as substrates” value in series [4] was “not the substrates”. Further, in series [4], the “Oxidation of D-xylose, L-arabinose and D-glucose into corresponding sugar acid” value was “could be oxidized”.
